These results are taken from paper PMC6854716, “Redesigning N-glycosylation sites in a GH3 β-xylosidase improves the enzymatic efficiency” (Biotechnology for Biofuels, 2019).

The subject of series [1] is O=[N+]([O-])c1ccc(O[C@@H]2OC[C@@H](O)[C@H](O)[C@H]2O)cc1. The series is described as follows: purified protein. Format: biochemical, Aspergillus nidulans. To be noted: 0.05 M ammonium acetate pH 5.0, 60 °C, 1–20 mM substrate.
Substrate in the series “purified protein”: O=[N+]([O-])c1ccc(O[C@@H]2OC[C@@H](O)[C@H](O)[C@H]2O)cc1
Briefly: purified protein. Format: biochemical, Aspergillus nidulans. Conditions: 0.05 M ammonium acetate pH 5.0, 60 °C, 1–20 mM substrate. The source holds these as a separate data set.

Series [2] in a line: Michaelis-Menten kinetics, purified enzyme, pH 5.0, 60 °C. Conditions: glycan lost; control: BxlBwt.
Series [3] in a line: ρNP-X activity of intracellular extract. Conditions: glycan lost; control: BxlBwt.
A short description of series [4]: CD thermal melt, 20-100 °C. Conditions: glycan lost; control: BxlBwt.
A short description of series [5]: far-UV CD secondary structure. To be noted: glycan lost; control: BxlBwt.
A short description of series [6]: western blot of crude extracellular extract, polyclonal anti-BxlB. Conditions: glycan lost; control: BxlBwt. For orientation: In western blotting, separated proteins are transferred to a membrane and probed.

What is called Km is the substrate concentration at which the rate is half of its maximum. A word on the Vmax: it is the rate approached at saturating substrate. Usually kcat stands for the number of substrate molecules converted per active site and unit of time at saturation. One may read the kcat/Km as the second-order rate constant that governs catalysis at low substrate concentration. For the molecule “BxlB^wt (GH3 β-xylosidase BxlB) (Aspergillus nidulans FGSC A4; N340Q/N408Q/N419Q/N458Q/N621Q/N760Q)”, in series [1], the Km worked out at 2530 ± 230 µM, the Vmax is 9.49 µmol/min/mg, the kcat turned out to be 13 s⁻¹ and the kcat/Km is 5130 M⁻¹ s⁻¹.

B1: BxlB^wt (GH3 β-xylosidase BxlB) (Aspergillus nidulans FGSC A4) (protein)
chain: NYPDCTTGPLSELPICDTSLSPLERAKSLVSALTLEEKINNTGHEAAGSSRLGLPAYNWWNEALHGVAEKHGVSFEESGDFSYATSFPAPIVLGAAFNDALIRRVAEIISTEARAFSNSDHAGIDYWTPNVNPFKDPRWGRGQETPGEDPLHCSRYVKEFVGGLQGDDPEKPKVVATCKHLAAYDLEEWGGVSRFEFDAKVSAVDLLEYYLPPFKTCAVDASVGAFMCSYNALNGVPACADRYLLQTVLREHWGWEGPGHWVTGDCGAVERIQTYHHYVESGPEAAAAALNAGVDLDCGTWLPSYLGEAERQGLISNETLDAALTRLYTSLVQLGYFDPAEGQPLRSLGWDDVATSEAEELAKTVAIQGTVLLKNIDWTLPLKANGTLALIGPFINFTTELQSNYAGPAKHIPTMIEAAERLGYNVLTAPGTEVNSTSTDGFDDALAIAAEADALIFFGGIDNTVEEESLDRTRIDWPGNQEELILELAELGRPLTVVQFGGGQVDDSALLASAGVGAIVWAGYPSQAGGAGVFDVLTGKAAPAGRLPITQYPKSYVDEVPMTDMNLQPGTDNPGRTYRWYEDAVLPFGFGLHYTTFNVSWAKKAFGPYDAATLARGKNPSSNIVDTFSLAVTNTGDVASDYVALVFASAPELGAQPAPIKTLVGYSRASLIKPGETRKVDVEVTVAPLTRATEDGRVVLYPGEYTLLVDVNDEYPTAKFEIKGDVQVLEKFPLSGNDSD
notes: homologous secreted expression in A. nidulans A773 (pEXPYR, glaA promoter, A. niger glucoamylase signal peptide); purified by DEAE and Superdex 200; N-glycosylated at N63, N340, N408, N419, N458, N621, N760
For B1, in the series “purified protein”, the Km worked out at 2060 ± 130 µM, the Vmax was 9.55 µmol/min/mg, the catalytic constant (kcat) was determined as 13.1 s⁻¹ and the kcat/Km was 6340 M⁻¹ s⁻¹.

B2: BxlB (GH3 β-xylosidase): BxlBN1;5;7 (protein)
parent chain: MAVFKSWNLALLSSLFIPALCQSNYPDCTTGPLSELPICDTSLSPLERAKSLVSALTLEEKINNTGHEAAGSSRLGLPAYNWWNEALHGVAEKHGVSFEESGDFSYATSFPAPIVLGAAFNDALIRRVAEIISTEARAFSNSDHAGIDYWTPNVNPFKDPRWGRGQETPGEDPLHCSRYVKEFVGGLQGDDPEKPKVVATCKHLAAYDLEEWGGVSRFEFDAKVSAVDLLEYYLPPFKTCAVDASVGAFMCSYNALNGVPACADRYLLQTVLREHWGWEGPGHWVTGDCGAVERIQTYHHYVESGPEAAAAALNAGVDLDCGTWLPSYLGEAERQGLISNETLDAALTRLYTSLVQLGYFDPAEGQPLRSLGWDDVATSEAEELAKTVAIQGTVLLKNIDWTLPLKANGTLALIGPFINFTTELQSNYAGPAKHIPTMIEAAERLGYNVLTAPGTEVNSTSTDGFDDALAIAAEADALIFFGGIDNTVEEESLDRTRIDWPGNQEELILELAELGRPLTVVQFGGGQVDDSALLASAGVGAIVWAGYPSQAGGAGVFDVLTGKAAPAGRLPITQYPKSYVDEVPMTDMNLQPGTDNPGRTYRWYEDAVLPFGFGLHYTTFNVSWAKKAFGPYDAATLARGKNPSSNIVDTFSLAVTNTGDVASDYVALVFASAPELGAQPAPIKTLVGYSRASLIKPGETRKVDVEVTVAPLTRATEDGRVVLYPGEYTLLVDVNDEYPTAKFEIKGDVQVLEKFPLSGNDSD
As to B2, in series [2], the “enzymatic_activity, kcat_Km” value is “increases, 9.51 vs 6.34, 50% higher catalytic efficiency as compared to the wild type”. Besides, the “enzymatic_activity, fold_change” value in series [3] is recorded as “increases”. Also, the “stability_or_folding, Tm” value in series [4] is recorded as “decreases, 61.6 vs 63.8”. Further, the structure_or_conformation entry in series [5] is recorded as “no change”. Also, the expression_or_secretion entry in series [6] is “decreases”.

B3: BxlB (GH3 β-xylosidase): BxlBN5 (protein)
parent chain: MAVFKSWNLALLSSLFIPALCQSNYPDCTTGPLSELPICDTSLSPLERAKSLVSALTLEEKINNTGHEAAGSSRLGLPAYNWWNEALHGVAEKHGVSFEESGDFSYATSFPAPIVLGAAFNDALIRRVAEIISTEARAFSNSDHAGIDYWTPNVNPFKDPRWGRGQETPGEDPLHCSRYVKEFVGGLQGDDPEKPKVVATCKHLAAYDLEEWGGVSRFEFDAKVSAVDLLEYYLPPFKTCAVDASVGAFMCSYNALNGVPACADRYLLQTVLREHWGWEGPGHWVTGDCGAVERIQTYHHYVESGPEAAAAALNAGVDLDCGTWLPSYLGEAERQGLISNETLDAALTRLYTSLVQLGYFDPAEGQPLRSLGWDDVATSEAEELAKTVAIQGTVLLKNIDWTLPLKANGTLALIGPFINFTTELQSNYAGPAKHIPTMIEAAERLGYNVLTAPGTEVNSTSTDGFDDALAIAAEADALIFFGGIDNTVEEESLDRTRIDWPGNQEELILELAELGRPLTVVQFGGGQVDDSALLASAGVGAIVWAGYPSQAGGAGVFDVLTGKAAPAGRLPITQYPKSYVDEVPMTDMNLQPGTDNPGRTYRWYEDAVLPFGFGLHYTTFNVSWAKKAFGPYDAATLARGKNPSSNIVDTFSLAVTNTGDVASDYVALVFASAPELGAQPAPIKTLVGYSRASLIKPGETRKVDVEVTVAPLTRATEDGRVVLYPGEYTLLVDVNDEYPTAKFEIKGDVQVLEKFPLSGNDSD
Turning to B3, in series [2], the “enzymatic_activity, kcat_Km” value is reported as “decreases, 0.61 vs 6.34”. Further, the “stability_or_folding, Tm” value in series [4] is reported as “decreases”. Moreover, the structure_or_conformation result in series [5] is “no change”. Further, the expression_or_secretion entry in series [6] is given as “decreases”.

B4: BxlB (GH3 β-xylosidase): BxlBN1 (protein)
parent chain: MAVFKSWNLALLSSLFIPALCQSNYPDCTTGPLSELPICDTSLSPLERAKSLVSALTLEEKINNTGHEAAGSSRLGLPAYNWWNEALHGVAEKHGVSFEESGDFSYATSFPAPIVLGAAFNDALIRRVAEIISTEARAFSNSDHAGIDYWTPNVNPFKDPRWGRGQETPGEDPLHCSRYVKEFVGGLQGDDPEKPKVVATCKHLAAYDLEEWGGVSRFEFDAKVSAVDLLEYYLPPFKTCAVDASVGAFMCSYNALNGVPACADRYLLQTVLREHWGWEGPGHWVTGDCGAVERIQTYHHYVESGPEAAAAALNAGVDLDCGTWLPSYLGEAERQGLISNETLDAALTRLYTSLVQLGYFDPAEGQPLRSLGWDDVATSEAEELAKTVAIQGTVLLKNIDWTLPLKANGTLALIGPFINFTTELQSNYAGPAKHIPTMIEAAERLGYNVLTAPGTEVNSTSTDGFDDALAIAAEADALIFFGGIDNTVEEESLDRTRIDWPGNQEELILELAELGRPLTVVQFGGGQVDDSALLASAGVGAIVWAGYPSQAGGAGVFDVLTGKAAPAGRLPITQYPKSYVDEVPMTDMNLQPGTDNPGRTYRWYEDAVLPFGFGLHYTTFNVSWAKKAFGPYDAATLARGKNPSSNIVDTFSLAVTNTGDVASDYVALVFASAPELGAQPAPIKTLVGYSRASLIKPGETRKVDVEVTVAPLTRATEDGRVVLYPGEYTLLVDVNDEYPTAKFEIKGDVQVLEKFPLSGNDSD
On to B4, for which the “enzymatic_activity, kcat_Km” value in series [2] was “decreases, 5.13 vs 6.34”. The “stability_or_folding, Tm” value in series [4] is reported as “decreases”. Moreover, the structure_or_conformation result in series [5] is “no change”. Besides, the expression_or_secretion result in series [6] is “decreases”.
